Experimental findings from paper PMC12964555, “Fecal Detection of Calprotectin Subunits Links Inflammatory Bowel Disease Activity With Chronicity of Intestinal Inflammation” (Gastroenterology, 2025) are described below.

Assay in all cases: SEC; human recombinant S100A8, S100A9 or their 1:1 mix (CP) run as reference proteins; sizes read from the elution
A general note: SEC sorts molecules by how far they enter the pores of the column.

The target of one data set is T1, human recombinant S100A9 (human, UniProt P06702 1-114).
T1 construct: S100A9, human, recombinant; Alone it runs as a homodimer by SEC; In the 1:1 mix with S100A8 it forms the calprotectin heterotetramer; also called S100A9 homodimers; source: human recombinant, generated by the authors, purity confirmed
T1 sequence (looked up): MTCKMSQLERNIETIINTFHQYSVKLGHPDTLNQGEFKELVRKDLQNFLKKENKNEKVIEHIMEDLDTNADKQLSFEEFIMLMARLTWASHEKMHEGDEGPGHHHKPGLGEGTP
The following applies: both partners purified.

Data set [1] deals with the molecule itself.
Data set [2] addresses T2, human recombinant S100A9 (human), P06702.
T2 chain: T1 sequence (looked up)

B1: human recombinant S100A8 (natural protein, UniProt P05109 1-93, looked up)
chain: MLTELEKALNSIIDVYHKYSLIKGNFHAVYRDDLKKLLETECPQYIRKKGADVWFKELDINTDGAVNFQEFLILVIKMGVAAHKKSHEESHKE
notes: S100A8, human, recombinant; Alone it runs as a homodimer by SEC; In the 1:1 mix with S100A9 it forms the calprotectin heterotetramer; also called S100A8 homodimers; S100A8/S100A8 homodimers; source: human recombinant, generated by the authors, purity confirmed
For B1, in the data set with human recombinant S100A9, the binding result is “binds”. Also, the “stoichiometry N” value in data set [1] is 2.

B2: human recombinant S100A9, P06702 1-114 (natural protein)
chain: T1 sequence (looked up)
With B2, the stoichiometry N in data set [2] was determined as 2.

As usually defined, the stoichiometry N is the number of molecules, sites or subunits per partner or assembly.
